Assays:
Assay in all cases: Mass spectroscopy proteomics, semi-quantitative binding affinity of serum proteins (plaqueproteome, Table 2)
Details in all cases: higher number = stronger affinity
[1] = molecular target: T1, Abeta-42 plaque particles (Homo sapiens, UniProt P05067)
T1 construct: Abeta 1-42
Procedure, shortened: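 AD patient serum or plasma (50% in PBS) was incubated with Abeta-42 aggregates (30 μg) for 1 h at 37 °C, then stained with Thioflavin S for 30 min. Labeled particles were FACS-sorted, trypsin/Lys-C digested overnight and analyzed by MS/MS. Sequest searched human UniProt; Scaffold/Protein Prophet validated the identifications.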

[2] = system: Low density cholesterol (Chl small) plaque particles; set-up: species or system human
Procedure, shortened: (§1)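 Proteins bound to flow-sorted cholesterol plaque particles (large/high-density or small/low-density gates) were identified by LC-MS/MS after trypsin digestion. Particles were formed from 50% atherosclerotic serum or plasma with 30 μg cholesterol aggregates, 1 h, 37 °C. Sequest human database search; Scaffold validation.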

[3] = system: High Density cholesterol (Chl Large) plaque particles; set-up: species or system human
Procedure, shortened: as §1

[4] = molecular target: T2, alpha-synuclein plaque particles (Homo sapiens, UniProt P37840)
T2 construct: 140 amino acids polypeptide
Procedure, shortened: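 AD-subject plasma or serum (800 μL of 50%) mixed with 30 μg preformed alpha-synuclein aggregates for 1 h at 37 °C; Thioflavin S-positive particles isolated by flow sorting. After reduction, acrylamide alkylation and overnight tryptic digestion, serum proteins identified by MS/MS with Sequest and Scaffold.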

Tau plaque particles = system: Tau plaque particles; set-up: species or system human
Procedure, shortened: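 Synthetic Tau-74 and Tau-275 peptides (1 mg/mL PBS, 37° C, 2 h) aggregated; 30 μg aggregates incubated with 50% serum/plasma 1 h at 37° C, stained with Thioflavin S, and plaque particles sorted by flow cytometry. Bound proteins trypsin-digested and identified by MS/MS against human UniProt.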

| Molecule | Semi-quantitative analysis of proteins binding to different plaque particles: Abeta-42 [1] | Semi-quantitative analysis of proteins binding to different plaque particles: Chl small [2] | Semi-quantitative analysis of proteins binding to different plaque particles: Chl Large [3] | Semi-quantitative analysis of proteins binding to different plaque particles: Synuclein [4] | Semi-quantitative analysis of proteins binding to different plaque particles: Tau (Tau plaque particles) |
| --- | --- | --- | --- | --- | --- |
| Ig heavy chain V-III region WEA (protein) EVQLVESGGGLVQPGGSLRLSCAASGFTFSSYEMNWVRQAPGKGLEWVSYISSSGSTIYYADSVKGRFTISRDNAKNSLYLQMNSLRAEDTAVYYCAR | 2 | 1 | 1 | 1 | 1 |
| Isoform C of Fibulin-1 (protein) DVLLEACCADGHRMATHQKDCSLPYATESKECRMVQEQCCHSQLEELHCATGISLANEQDRCATPHGDNASLEATFVKRCCHCCLLGRAAQAQGQSCEYSLMVGYQCGQVFQACCVKSQETGDLDVGGLQETDKIIEVEEEQEDPYLNDRCRGGGPCKQQCRDTGDEVVCSCFVGYQLLSDGVSCEDVNECITGSHSCRLGESCINTVGSFRCQRDSSCGTGYELTEDNSCKDIDECESGIHNCLPDFICQNTLGSFRCRPKLQCKSGFIQDALGNCIDINECLSISAPCPIGHTCINTEGSYTCQKNVPNCGRGYHLNEEGTRCVDVDECAPPAEPCGKGHRCVNSPGSFRCECKTGYYFDGISRMCVDVNECQRYPGRLCGHKCENTLGSYLCSCSVGFRLSVDGRSCEDINECSSSPCSQECANVYGSYQCYCRRGYQLSDVDGVTCEDIDECALPTGGHICSYRCINIPGSFQCSCPSSGYRLAPNGRNCQDIDECVTGIHNCSINETCFNIQGGFRCLAFECPENYRRSAATRCERLPCHENRECSKLPLRITYYHLSFPTNIQAPAVVFRMGPSSAVPGDSMQLAITGGNEEGFFTTRKVSPHSGVVALTKPVPEPRDLLLTVKMDLSRHGTVSSFVAKLFIFVSAEL | 0 | 2 | 1 | 1 | 0 |
| Protein S100-A7 (protein) SNTQAERSIIGMIDMFHKYTRRDDKIEKPSLLTMMKENFPNFLSACDKKGTNYLADVFEKKDKNEDKKIDFSEFLSLLGDIATDYHKQSHGAAPCSGGSQ | 2 | 0 | 0 | 0 | 0 |
| Protein-glutamine gamma-glutamyltransferase E (protein) AALGVQSINWQTAFNRQAHHTDKFSSQELILRRGQNFQVLMIMNKGLGSNERLEFIVSTGPYPSESAMTKAVFPLSNGSSGGWSAVLQASNGNTLTISISSPASAPIGRYTMALQIFSQGGISSVKLGTFILLFNPWLNVDSVFMGNHAEREEYVQEDAGIIFVGSTNRIGMIGWNFGQFEEDILSICLSILDRSLNFRRDAATDVASRNDPKYVGRVLSAMINSNDDNGVLAGNWSGTYTGGRDPRSWNGSVEILKNWKKSGFSPVRYGQCWVFAGTLNTALRSLGIPSRVITNFNSAHDTDRNLSVDVYYDPMGNPLDKGSDSVWNFHVWNEGWFVRSDLGPSYGGWQVLDATPQERSQGVFQCGPASVIGVREGDVQLNFDMPFIFAEVNADRITWLYDNTTGKQWKNSVNSHTIGRYISTKAVGSNARMDVTDKYKYPEGSDQERQVFQKALGKLKPNTPFAATSSMGLETEEQEPSIIGKLKVAGMLAVGKEVNLVLLLKNLSRDTKTVTVNMTAWTIIYNGTLVHEVWKDSATMSLDPEEEAEHPIKISYAQYEKYLKSDNMIRITAVCKVPDESEVVVERDIILDNPTLTLEVLNEARVRKPVNVQMLFSNPLDEPVRDCVLMVEGSGLLLGNLKIDVPTLGPKEGSRVRFDILPSRSGTKQLLADFSCNKFPAIKAMLSIDVAE | 2 | 0 | 0 | 0 | 0 |
| Isoform B of Fibulin-1 (protein) DVLLEACCADGHRMATHQKDCSLPYATESKECRMVQEQCCHSQLEELHCATGISLANEQDRCATPHGDNASLEATFVKRCCHCCLLGRAAQAQGQSCEYSLMVGYQCGQVFQACCVKSQETGDLDVGGLQETDKIIEVEEEQEDPYLNDRCRGGGPCKQQCRDTGDEVVCSCFVGYQLLSDGVSCEDVNECITGSHSCRLGESCINTVGSFRCQRDSSCGTGYELTEDNSCKDIDECESGIHNCLPDFICQNTLGSFRCRPKLQCKSGFIQDALGNCIDINECLSISAPCPIGHTCINTEGSYTCQKNVPNCGRGYHLNEEGTRCVDVDECAPPAEPCGKGHRCVNSPGSFRCECKTGYYFDGISRMCVDVNECQRYPGRLCGHKCENTLGSYLCSCSVGFRLSVDGRSCEDINECSSSPCSQECANVYGSYQCYCRRGYQLSDVDGVTCEDIDECALPTGGHICSYRCINIPGSFQCSCPSSGYRLAPNGRNCQDIDECVTGIHNCSINETCFNIQGGFRCLAFECPENYRRSAATQKSKKGRQNTPAGSSKEDCRVLPWKQGLEDTHLDA | 0 | 3 | 3 | 1 | 0 |
| Junction plakoglobin (protein) MEVMNLMEQPIKVTEWQQTYTYDSGIHSGANTCVPSVSSKGIMEEDEACGRQYTLKKTTTYTQGVPPSQGDLEYQMSTTARAKRVREAMCPGVSGEDSSLLLATQVEGQATNLQRLAEPSQLLKSAIVHLINYQDDAELATRALPELTKLLNDEDPVVVTKAAMIVNQLSKKEASRRALMGSPQLVAAVVRTMQNTSDLDTARCTTSILHNLSHHREGLLAIFKSGGIPALVRMLSSPVESVLFYAITTLHNLLLYQEGAKMAVRLADGLQKMVPLLNKNNPKFLAITTDCLQLLAYGNQESKLIILANGGPQALVQIMRNYSYEKLLWTTSRVLKVLSVCPSNKPAIVEAGGMQALGKHLTSNSPRLVQNCLWTLRNLSDVATKQEGLESVLKILVNQLSVDDVNVLTCATGTLSNLTCNNSKNKTLVTQNSGVEALIHAILRAGDKDDITEPAVCALRHLTSRHPEAEMAQNSVRLNYGIPAIVKLLNQPNQWPLVKATIGLIRNLALCPANHAPLQEAAVIPRLVQLLVKAHQDAQRHVAAGTQQPYTDGVRMEEIVEGCTGALHILARDPMNRMEIFRLNTIPLFVQLLYSSVENIQRVAAGVLCELAQDKEAADAIDAEGASAPLMELLHSRNEGTATYAAAVLFRISEDKNPDYRKRVSVELTNSLFKHDPAAWEAAQSMIPINEPYGDDMDATYRPMYSSDVPLDPLEMHMDMDGDYPIDTYSDGLRPPYPTADHMLA | 2 | 0 | 0 | 0 | 0 |
| Isoform 2 of Glycogen synthase kinase-3 (protein) MSGRPRTTSFAESCKPVQQPSAFGSMKVSRDKDGSKVTTVVATPGQGPDRPQEVSYTDTKVIGNGSFGVVYQAKLCDSGELVAIKKVLQDKRFKNRELQIMRKLDHCNIVRLRYFFYSSGEKKDEVYLNLVLDYVPETVYRVARHYSRAKQTLPVIYVKLYMYQLFRSLAYIHSFGICHRDIKPQNLLLDPDTAVLKLCDFGSAKQLVRGEPNVSYICSRYYRAPELIFGATDYTSSIDVWSAGCVLAELLLGQPIFPGDSGVDQLVEIIKVLGTPTREQIREMNPNYTEFKFPQIKAHPWTKDSSGTGHFTSGVRVFRPRTPPEAIALCSRLLEYTPTARLTPLEACAHSFFDELRDPNVKLPNGRDTPALFNFTTQELSSNPPLATILIPPHARIQAAASTPTNATAASDANTGDRGQTNNAASASASNST | 4 | 0 | 0 | 0 | 0 |

Reference: patent publication US9618524B2, “Method, composition, isolation and identification of a plaque particle and related biomarker” (Plaxgen Inc., priority 2012, dated 2017)
